Changes are numbered by the printed parent chain. Read-outs that look alike come from different tables or passages of the source. Each block holds one binder with its values, some of them ahead of it.
Experiments:
[1] = target: Factor Xa (activated factor X), human plasma (human); test: titration of protease activity
[2] = target: Factor Xa (activated factor X), human plasma (human); test: enzyme inhibition kinetics
[3] = target: Factor XIa (activated factor XI), human plasma (human); test: enzyme inhibition kinetics
[4] = target: Factor Xa (activated factor X), human plasma (human); test: enzyme inhibition kinetics; remark: listed apart in the source
[5] = target: Factor Xa (activated factor X), human plasma (human); test: titration of protease activity; remark: listed apart in the source
[6] = target: Factor XIa (activated factor XI), human plasma (human); test: titration of protease activity
[7] = target: FXa-R240A (heparin-binding exosite mutant of factor Xa) (UniProt P00742); test: enzyme inhibition kinetics
[8] = target: FXa-R240A (heparin-binding exosite mutant of factor Xa) (UniProt P00742); test: enzyme inhibition kinetics; remark: listed apart in the source
[9] = target: Factor XIa (activated factor XI), human plasma (human); test: enzyme inhibition kinetics; remark: listed apart in the source
[10] = target: Factor Xa (activated factor X), human plasma (human); test: enzyme inhibition kinetics; remark: listed apart in the source
[11] = target: Factor XIa (activated factor XI), human plasma (human); test: titration of protease activity; remark: listed apart in the source
[12] = target: Factor Xa (activated factor X), human plasma (human); test: titration of protease activity; remark: listed apart in the source

Chain of Factor Xa (activated factor X), human plasma (human) (P00742 whole entry): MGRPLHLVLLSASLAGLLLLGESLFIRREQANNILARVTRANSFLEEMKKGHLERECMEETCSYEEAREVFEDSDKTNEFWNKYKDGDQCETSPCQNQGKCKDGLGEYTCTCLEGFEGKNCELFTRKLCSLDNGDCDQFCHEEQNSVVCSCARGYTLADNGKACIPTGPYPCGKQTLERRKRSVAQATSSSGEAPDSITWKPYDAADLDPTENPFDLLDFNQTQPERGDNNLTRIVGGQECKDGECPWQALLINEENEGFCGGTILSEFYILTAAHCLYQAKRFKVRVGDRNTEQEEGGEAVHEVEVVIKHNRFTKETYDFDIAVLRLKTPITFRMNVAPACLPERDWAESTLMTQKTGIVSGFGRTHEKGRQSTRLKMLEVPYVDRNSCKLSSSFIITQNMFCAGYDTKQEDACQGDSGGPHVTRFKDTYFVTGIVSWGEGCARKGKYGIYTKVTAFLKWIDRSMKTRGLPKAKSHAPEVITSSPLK

B1: Protein Z-dependent protease inhibitor, wild type (natural protein)
chain: LAPSPQSPETPAPQNQTSRVVQAPKEEEEDEQEASEEKASEEEKAWLMASRQQLAKETSNFGFSLLRKISMRHDGNMVFSPFGMSLAMTGLMLGATGPTETQIKRGLHLQALKPTKPGLLPSLFKGLRETLSRNLELGLTQGSFAFIHKDFDVKETFFNLSKRYFDTECVPMNFRNASQAKRLMNHYINKETRGKIPKLFDEINPETKLILVDYILFKGKWLTPFDPVFTEVDTFHLDKYKTIKVPMMYGAGKFASTFDKNFRCHVLKLPYQGNATMLVVLMEKMGDHLALEDYLTTDLVETWLRNMKTRNMEVFFPKFKLDQKYEMHELLRQMGIRRIFSPFADLSELSATGRNLQVSRVLQRTVIEVDERGTEAVAGILSEITAYSMPPVIKVDRPFHFMIYEETSGMLLFLGRVVNPTLL
- SI (stoichiometry of inhibition) [1]: 4.1 mol I/mol E
- k2(app) (apparent second-order association rate constant of inhibition) [2]: 2.5e+06 M⁻¹ s⁻¹
- k2(app) (apparent second-order association rate constant of inhibition) [3]: 420000 M⁻¹ s⁻¹
- k2(app) (apparent second-order association rate constant of inhibition) [4]: 180000 M⁻¹ s⁻¹
- SI (stoichiometry of inhibition) [5]: 2.8 mol I/mol E
- SI (stoichiometry of inhibition) [6]: 4.3 mol I/mol E
- k2 (second-order association rate constant of inhibition) [7]: 30000 M⁻¹ s⁻¹
- k2 (second-order association rate constant of inhibition) [8]: 2800 M⁻¹ s⁻¹
- k2(app) (apparent second-order association rate constant of inhibition) [9]: 58000 M⁻¹ s⁻¹
- k2(app) (apparent second-order association rate constant of inhibition) [10]: 3400 M⁻¹ s⁻¹
- SI (stoichiometry of inhibition) [11]: 10.2 mol I/mol E
- SI (stoichiometry of inhibition) [12]: 3.8 mol I/mol E

B3: ZPI single mutant with Lys-116 substituted with Ala (natural protein)
chain: B1 chain with K116A
- fold decrease in reactivity in the presence of heparin [9]: < 2 fold
- fold decrease in reactivity in the presence of heparin [10]: < 2 fold

B4: ZPI single mutant with Lys-125 substituted with Ala (natural protein)
chain: B1 chain with K104A
- fold decrease in reactivity in the presence of heparin [9]: < 2 fold
- fold decrease in reactivity in the presence of heparin [10]: < 2 fold

B5: ZPI single mutant with Lys-113 substituted with Ala (natural protein)
chain: B1 chain with K113A
- fold decrease in reactivity in the presence of heparin [9]: < 2 fold
- fold decrease in reactivity in the presence of heparin [10]: < 2 fold

B6: ZPI single mutant with Arg-128 substituted with Ala (natural protein)
chain: B1 chain with R128A
- fold decrease in reactivity in the presence of heparin [9]: < 2 fold
- fold decrease in reactivity in the presence of heparin [10]: < 2 fold

Next, values leading:

- SI (stoichiometry of inhibition) [1]: 4.5 mol I/mol E
- k2(app) (apparent second-order association rate constant of inhibition) [2]: 2e+06 M⁻¹ s⁻¹
- k2(app) x SI (second-order rate constant corrected for SI) [2]: 6.6e+06 M⁻¹ s⁻¹
- k2(app) (apparent second-order association rate constant of inhibition) [3]: 260000 M⁻¹ s⁻¹
- k2(app) x SI (second-order rate constant corrected for SI) [3]: 1.4e+06 M⁻¹ s⁻¹
- k2(app) (apparent second-order association rate constant of inhibition) [4]: 95000 M⁻¹ s⁻¹
- k2(app) x SI (second-order rate constant corrected for SI) [4]: 360000 M⁻¹ s⁻¹
- SI (stoichiometry of inhibition) [5]: 3.3 mol I/mol E
- SI (stoichiometry of inhibition) [6]: 5.2 mol I/mol E
- k2(app) (apparent second-order association rate constant of inhibition) [9]: 41000 M⁻¹ s⁻¹
- k2(app) x SI (second-order rate constant corrected for SI) [9]: 540000 M⁻¹ s⁻¹
- k2(app) (apparent second-order association rate constant of inhibition) [10]: 2600 M⁻¹ s⁻¹
- k2(app) x SI (second-order rate constant corrected for SI) [10]: 12000 M⁻¹ s⁻¹
- SI (stoichiometry of inhibition) [11]: 13.3 mol I/mol E
- SI (stoichiometry of inhibition) [12]: 3.8 mol I/mol E
B2: ZPI-3A (ZPI with Lys-113, Lys-116 and Lys-125 substituted with Ala) (natural protein)
chain: B1 chain with K113A, K116A, K125A

- SI (stoichiometry of inhibition) [1]: 7.4 mol I/mol E
- k2(app) (apparent second-order association rate constant of inhibition) [2]: 1.8e+06 M⁻¹ s⁻¹
- k2(app) x SI (second-order rate constant corrected for SI) [2]: 8.1e+06 M⁻¹ s⁻¹
- k2(app) (apparent second-order association rate constant of inhibition) [3]: 110000 M⁻¹ s⁻¹
- k2(app) x SI (second-order rate constant corrected for SI) [3]: 940000 M⁻¹ s⁻¹
- SI (stoichiometry of inhibition) [5]: 4.5 mol I/mol E
- SI (stoichiometry of inhibition) [6]: 8.5 mol I/mol E
- k2(app) (apparent second-order association rate constant of inhibition) [9]: 29000 M⁻¹ s⁻¹
- k2(app) x SI (second-order rate constant corrected for SI) [9]: 450000 M⁻¹ s⁻¹
- k2(app) (apparent second-order association rate constant of inhibition) [10]: 2100 M⁻¹ s⁻¹
- k2(app) x SI (second-order rate constant corrected for SI) [10]: 15000 M⁻¹ s⁻¹
- SI (stoichiometry of inhibition) [11]: 15.6 mol I/mol E
- SI (stoichiometry of inhibition) [12]: 7.3 mol I/mol E
B7: ZPI-des-NT (ZPI with the first 52 residues of the acidic N-terminal tail deleted) (domain or fragment)
chain: QLAKETSNFGFSLLRKISMRHDGNMVFSPFGMSLAMTGLMLGATGPTETQIKRGLHLQALKPTKPGLLPSLFKGLRETLSRNLELGLTQGSFAFIHKDFDVKETFFNLSKRYFDTECVPMNFRNASQAKRLMNHYINKETRGKIPKLFDEINPETKLILVDYILFKGKWLTPFDPVFTEVDTFHLDKYKTIKVPMMYGAGKFASTFDKNFRCHVLKLPYQGNATMLVVLMEKMGDHLALEDYLTTDLVETWLRNMKTRNMEVFFPKFKLDQKYEMHELLRQMGIRRIFSPFADLSELSATGRNLQVSRVLQRTVIEVDERGTEAVAGILSEITAYSMPPVIKVDRPFHFMIYEETSGMLLFLGRVVNPTLL

Reference: article PMC3352997
